The target in test [1] is T1, purified recombinant human Napi2b antigen consisting of Napi2b-extracellular-loop2 expressed as … (human, UniProt O95436 234-362, limits assumed).
T1 construct: Expressed in Expi-HEK293 cells; also called immobilized human NaPi2B; not shown: Fc part; 6-His tag
T1 sequence: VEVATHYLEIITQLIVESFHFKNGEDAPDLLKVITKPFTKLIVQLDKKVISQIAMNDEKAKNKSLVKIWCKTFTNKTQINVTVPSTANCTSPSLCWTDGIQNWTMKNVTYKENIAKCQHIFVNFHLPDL
As to the kind of experiment: ELISA, coated Napi2b-extracellular-loop2-Fc-6-His, apparent KD from one-site fit.

Test [2] addresses T2, recombinant hexameric C1q complement protein (human) (human, UniProt P02745 23-245; P02746 28-253; P02747 29-245).
T2 construct: also called complement factor C1q
As to the kind of experiment: HTRF Human C1q Binding Kit (Cisbio), HTRF ratio at 70 nM antibody with the diluent-only background subtracted. Background: Time-resolved FRET reads energy transfer from a long-lived donor to a nearby acceptor.

The target in test [3] is T3, recombinant human FcγRI (FcγR-SmBiT, Lumit assay) (human, UniProt P12314 16-292).
T3 construct: Kit reagent (Promega); also called FcγRI (CD64); not shown: SmBiT label of the kit
As to the kind of experiment: Lumit FcγRI Binding Immunoassay (Promega), competition with Tracer-LgBiT for FcγRI-SmBiT, falling luminescence means binding, n=1.

The target in test [4] is T4, human Napi2c-mCherry on HEK293 cells (human, UniProt Q8N130 1-599).
T4 construct: whole, on cells; also called Napi2c (SLC34A3); not shown: mCherry fusion
T4 sequence (looked up): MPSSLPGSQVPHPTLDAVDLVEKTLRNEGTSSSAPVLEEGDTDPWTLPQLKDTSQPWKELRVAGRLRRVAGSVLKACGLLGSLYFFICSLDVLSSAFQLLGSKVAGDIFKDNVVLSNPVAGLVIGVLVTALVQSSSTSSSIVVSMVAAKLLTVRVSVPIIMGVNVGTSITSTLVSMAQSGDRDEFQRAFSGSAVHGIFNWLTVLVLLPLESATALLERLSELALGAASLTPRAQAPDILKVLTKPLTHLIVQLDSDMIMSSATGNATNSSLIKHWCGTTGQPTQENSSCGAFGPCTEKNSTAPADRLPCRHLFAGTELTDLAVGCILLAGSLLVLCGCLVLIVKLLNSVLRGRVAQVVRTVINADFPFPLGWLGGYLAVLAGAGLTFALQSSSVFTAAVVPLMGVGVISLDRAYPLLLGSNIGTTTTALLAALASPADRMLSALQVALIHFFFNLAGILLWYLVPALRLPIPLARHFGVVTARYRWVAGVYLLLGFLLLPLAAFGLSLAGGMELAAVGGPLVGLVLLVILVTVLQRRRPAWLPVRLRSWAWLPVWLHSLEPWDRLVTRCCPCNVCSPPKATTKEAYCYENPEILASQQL
As to the kind of experiment: flow cytometry on HEK293 cells expressing human Napi2c-mCherry (panel Napi2c-HEK293), MFI ratio to the non-specific binding control. (In general: A flow cytometer gives signals particle by particle.)

In test [5] the target is T5, HEK293 cyno-NaPi2B-mCherry (Macaca fascicularis, UniProt A0A2K5UHY1).
T5 construct: full-length mCherry fusion stably expressed on HEK293 cells; also called cynomolgus full-length NaPi2b-mCherry on HEK293 cells
T5 sequence (target on cells): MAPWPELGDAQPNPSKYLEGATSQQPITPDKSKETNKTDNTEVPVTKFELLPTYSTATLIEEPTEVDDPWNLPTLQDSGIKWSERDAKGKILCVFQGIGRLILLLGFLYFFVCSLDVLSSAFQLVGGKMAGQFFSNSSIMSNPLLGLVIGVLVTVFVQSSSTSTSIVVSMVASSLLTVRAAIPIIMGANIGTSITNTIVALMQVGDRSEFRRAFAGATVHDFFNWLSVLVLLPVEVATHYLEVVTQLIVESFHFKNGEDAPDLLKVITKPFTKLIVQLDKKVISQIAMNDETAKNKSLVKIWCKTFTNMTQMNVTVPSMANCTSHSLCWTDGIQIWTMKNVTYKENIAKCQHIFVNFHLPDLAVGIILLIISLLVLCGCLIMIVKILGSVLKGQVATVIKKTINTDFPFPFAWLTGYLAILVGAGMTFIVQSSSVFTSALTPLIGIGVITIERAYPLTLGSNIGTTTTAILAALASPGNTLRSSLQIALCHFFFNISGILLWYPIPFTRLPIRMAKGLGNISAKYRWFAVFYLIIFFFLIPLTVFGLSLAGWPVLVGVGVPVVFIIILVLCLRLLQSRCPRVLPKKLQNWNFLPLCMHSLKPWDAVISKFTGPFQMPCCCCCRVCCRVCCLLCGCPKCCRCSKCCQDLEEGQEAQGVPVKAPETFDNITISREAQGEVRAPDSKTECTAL
Put plainly: flow cytometry on HEK293 cells stably expressing cynomolgus full-length NaPi2b-mCherry, Alexa-dye anti-human IgG H+L secondary antibody, MFI ratio, one-site specific binding fit; the Kd table prints no unit, the concentration axis is in nM.

For test [6], the target named is T6, human Napi2b-mCherry on HEK293 cells (human, UniProt O95436 1-690).
T6 construct: also called Napi2b (SLC34A2); HEK293 cells overexpressing Napi2b
T6 sequence: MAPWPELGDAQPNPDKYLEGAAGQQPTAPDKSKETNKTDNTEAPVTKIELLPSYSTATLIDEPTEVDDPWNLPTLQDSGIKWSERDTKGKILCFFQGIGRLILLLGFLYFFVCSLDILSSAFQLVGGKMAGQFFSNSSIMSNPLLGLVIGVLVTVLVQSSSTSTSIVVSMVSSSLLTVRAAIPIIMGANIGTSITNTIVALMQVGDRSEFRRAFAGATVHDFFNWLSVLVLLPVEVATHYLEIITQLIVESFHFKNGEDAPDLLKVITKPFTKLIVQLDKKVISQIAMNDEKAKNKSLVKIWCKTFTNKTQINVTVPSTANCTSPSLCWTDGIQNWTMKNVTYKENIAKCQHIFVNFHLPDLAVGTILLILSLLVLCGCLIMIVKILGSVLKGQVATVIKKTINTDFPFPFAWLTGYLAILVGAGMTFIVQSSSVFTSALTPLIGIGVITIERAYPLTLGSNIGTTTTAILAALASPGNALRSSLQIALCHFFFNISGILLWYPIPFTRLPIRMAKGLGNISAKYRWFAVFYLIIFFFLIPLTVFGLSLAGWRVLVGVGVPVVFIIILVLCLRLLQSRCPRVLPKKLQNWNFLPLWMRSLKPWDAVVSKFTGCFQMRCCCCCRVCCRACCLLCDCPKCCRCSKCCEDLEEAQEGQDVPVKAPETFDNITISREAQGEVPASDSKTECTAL
As to the kind of experiment: flow cytometry on HEK293 cells stably expressing human full-length NaPi2b-mCherry, Alexa-dye anti-human IgG H+L secondary antibody, MFI ratio, one-site specific binding fit; the Kd table prints no unit, the concentration axis is in nM; second experiment on human cells, run beside the rat cells of FIG. 3D.

T2 sequence (P02745 23-245 limits assumed, chain 1 of 3): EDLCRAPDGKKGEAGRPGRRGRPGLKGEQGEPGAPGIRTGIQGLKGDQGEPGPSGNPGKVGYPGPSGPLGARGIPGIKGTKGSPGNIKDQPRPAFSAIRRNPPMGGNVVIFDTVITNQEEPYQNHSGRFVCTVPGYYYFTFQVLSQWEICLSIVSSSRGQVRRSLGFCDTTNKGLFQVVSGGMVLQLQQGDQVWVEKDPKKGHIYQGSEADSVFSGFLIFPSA
T2 sequence (P02746 28-253 limits assumed, chain 2 of 3): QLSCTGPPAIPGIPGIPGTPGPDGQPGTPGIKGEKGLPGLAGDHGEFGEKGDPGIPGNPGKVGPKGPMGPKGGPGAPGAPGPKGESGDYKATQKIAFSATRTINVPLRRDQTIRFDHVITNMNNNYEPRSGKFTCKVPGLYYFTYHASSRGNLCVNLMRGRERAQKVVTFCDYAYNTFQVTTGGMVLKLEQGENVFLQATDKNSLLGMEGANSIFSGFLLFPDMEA
T2 sequence (P02747 29-245 limits assumed, chain 3 of 3): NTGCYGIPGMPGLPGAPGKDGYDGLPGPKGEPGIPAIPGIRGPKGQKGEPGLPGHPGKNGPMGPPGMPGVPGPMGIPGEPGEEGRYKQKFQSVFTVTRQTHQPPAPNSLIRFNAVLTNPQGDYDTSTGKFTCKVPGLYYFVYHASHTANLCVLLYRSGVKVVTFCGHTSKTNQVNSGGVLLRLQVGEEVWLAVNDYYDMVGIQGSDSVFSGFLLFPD
T3 sequence (P12314 16-292): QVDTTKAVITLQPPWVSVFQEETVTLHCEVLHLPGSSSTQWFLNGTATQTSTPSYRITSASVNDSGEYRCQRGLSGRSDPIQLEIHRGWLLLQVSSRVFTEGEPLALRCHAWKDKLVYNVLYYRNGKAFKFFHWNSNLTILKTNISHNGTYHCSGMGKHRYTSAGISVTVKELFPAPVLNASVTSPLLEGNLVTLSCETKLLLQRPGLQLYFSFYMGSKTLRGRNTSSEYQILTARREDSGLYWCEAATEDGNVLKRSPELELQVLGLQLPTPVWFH

B1: AV25 mAb, LALA-silenced (AV25 HC-LALA) (antibody, human IgG1, kappa, L234A L235A)
heavy: not shown
light: DIQMTQSPSSLSASVGDRVTITCSASQDIGNFLNWYQQKPGKTVKVLIYYASSLYSGVPSRFSGSGSGTDYTLTISSLQPEDFATYYCQQYSKLPLTFGQGTKLELKRTVAAPSVFIFPPSDEQLKSGTASVVCLLNNFYPREAKVQWKVDNALQSGNSQESVTEQDSKDSTYSLSSTLTLSKADYEKHKVYACEVTHQGLSSPVTKSFNRGEC
notes: also called unmodified AV25 mAb
For the molecule B1, the Kd in test [1] was determined as 0.0106 µg/mL; in test [5] it was 1.43 nM; in test [6] it was 0.609 nM. In addition, the binding result was “no binding (tested: 70 nM)” in test [2], “binds” in test [3] and “no binding (tested: 200 nM)” in test [4].

For the origin of these results see patent US20240182596A1 (TUBULIS, published 2024).
